T1: IL-18 receptor (IL-18Rα/IL-18Rβ) on human PBMCs (human, UniProt Q13478 19-541; O95256 20-599)
T1 sequence (looked up) 1: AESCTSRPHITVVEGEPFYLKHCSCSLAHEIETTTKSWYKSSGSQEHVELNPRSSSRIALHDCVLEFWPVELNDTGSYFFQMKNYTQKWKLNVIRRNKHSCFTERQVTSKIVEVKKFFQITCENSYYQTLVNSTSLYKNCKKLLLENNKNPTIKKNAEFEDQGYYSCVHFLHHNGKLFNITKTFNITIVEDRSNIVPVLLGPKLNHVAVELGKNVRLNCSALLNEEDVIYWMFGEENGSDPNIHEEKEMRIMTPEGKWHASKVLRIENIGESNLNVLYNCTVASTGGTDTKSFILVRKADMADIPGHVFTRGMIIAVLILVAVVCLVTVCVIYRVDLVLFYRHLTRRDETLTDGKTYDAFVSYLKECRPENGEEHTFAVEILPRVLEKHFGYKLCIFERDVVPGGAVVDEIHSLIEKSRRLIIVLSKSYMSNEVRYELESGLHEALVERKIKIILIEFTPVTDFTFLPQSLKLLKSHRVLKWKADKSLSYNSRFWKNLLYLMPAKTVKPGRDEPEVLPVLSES
T1 sequence (looked up) 2: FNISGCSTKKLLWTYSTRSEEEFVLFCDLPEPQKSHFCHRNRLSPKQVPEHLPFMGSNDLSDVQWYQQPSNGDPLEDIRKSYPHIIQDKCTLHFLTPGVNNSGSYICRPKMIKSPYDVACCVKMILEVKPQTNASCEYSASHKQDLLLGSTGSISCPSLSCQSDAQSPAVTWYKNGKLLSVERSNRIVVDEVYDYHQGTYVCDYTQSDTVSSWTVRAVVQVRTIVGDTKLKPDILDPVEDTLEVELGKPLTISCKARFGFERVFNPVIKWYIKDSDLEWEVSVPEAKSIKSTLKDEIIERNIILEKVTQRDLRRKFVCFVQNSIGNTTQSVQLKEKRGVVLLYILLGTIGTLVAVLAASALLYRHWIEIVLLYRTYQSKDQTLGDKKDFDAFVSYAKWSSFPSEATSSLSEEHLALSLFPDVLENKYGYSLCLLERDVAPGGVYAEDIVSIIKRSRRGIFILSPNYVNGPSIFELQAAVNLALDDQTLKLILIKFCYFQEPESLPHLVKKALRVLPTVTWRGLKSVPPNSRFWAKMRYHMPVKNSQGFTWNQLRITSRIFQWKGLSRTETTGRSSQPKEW

T2: IL-18 receptor (IL-18Rα and IL-18Rβ) on HEK-Blue IL-18 cells (UniProt Q13478 19-541; O95256 20-599, limits assumed)
T2 sequence (looked up) 1: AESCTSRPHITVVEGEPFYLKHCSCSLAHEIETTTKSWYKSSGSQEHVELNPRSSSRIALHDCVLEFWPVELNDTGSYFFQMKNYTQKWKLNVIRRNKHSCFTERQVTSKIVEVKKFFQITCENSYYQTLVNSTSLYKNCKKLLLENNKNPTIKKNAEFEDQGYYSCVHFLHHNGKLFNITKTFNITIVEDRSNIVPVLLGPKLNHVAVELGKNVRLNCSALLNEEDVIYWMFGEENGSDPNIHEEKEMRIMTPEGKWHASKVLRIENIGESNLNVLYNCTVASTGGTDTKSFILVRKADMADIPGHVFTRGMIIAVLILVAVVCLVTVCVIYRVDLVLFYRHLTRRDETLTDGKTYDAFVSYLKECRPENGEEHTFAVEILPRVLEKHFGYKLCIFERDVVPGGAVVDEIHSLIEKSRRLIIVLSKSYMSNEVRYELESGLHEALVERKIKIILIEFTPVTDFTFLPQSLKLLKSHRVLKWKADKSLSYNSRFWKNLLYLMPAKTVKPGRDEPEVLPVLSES
T2 sequence (looked up) 2: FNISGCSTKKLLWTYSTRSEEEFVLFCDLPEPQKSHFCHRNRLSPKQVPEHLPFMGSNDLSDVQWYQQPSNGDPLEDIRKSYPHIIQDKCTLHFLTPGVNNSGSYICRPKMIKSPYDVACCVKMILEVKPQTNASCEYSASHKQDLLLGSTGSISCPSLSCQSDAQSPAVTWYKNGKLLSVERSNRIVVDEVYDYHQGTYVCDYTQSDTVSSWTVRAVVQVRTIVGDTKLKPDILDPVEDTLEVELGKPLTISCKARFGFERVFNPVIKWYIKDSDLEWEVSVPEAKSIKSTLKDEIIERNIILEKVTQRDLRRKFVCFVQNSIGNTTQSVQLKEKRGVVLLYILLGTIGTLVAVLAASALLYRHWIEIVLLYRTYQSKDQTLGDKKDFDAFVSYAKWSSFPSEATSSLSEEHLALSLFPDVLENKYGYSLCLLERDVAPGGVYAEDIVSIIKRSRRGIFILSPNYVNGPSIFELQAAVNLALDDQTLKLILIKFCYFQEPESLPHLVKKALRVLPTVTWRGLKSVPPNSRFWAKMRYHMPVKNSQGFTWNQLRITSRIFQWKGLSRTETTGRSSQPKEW


Assays:
Test in all cases: cell-based or functional assay
[1] = target: T1, IL-18 receptor (IL-18Rα/IL-18Rβ) on …
[2] = target: T2, IL-18 receptor (IL-18Rα and IL-18Rβ) on …
[3] = target: T2, IL-18 receptor (IL-18Rα and IL-18Rβ) on …; remark: listed apart in the source

Binder	Calculated maximum induction of IFN-γ after 24 hours, donor 1 [1]	Calculated maximum induction of IFN-γ after 24 hours, donor 2 [1]	Calculated maximum induction of IFN-γ after 24 hours, donor 3 [1]	Calculated maximum induction of IFN-γ after 24 hours, donor 4 [1]	Calculated maximum induction of IFN-γ after 24 hours, donor 5 [1]	Calculated maximum induction of IFN-γ after 24 hours, donor 6 [1]	HEK-Blue: Abs 405 at 100 nM [2] [absorbance]	HEK-Blue: Fold over background [2] [fold]	EC50 (read off the curve) [3] [nM]
DGL346 (bispecific antibody) chain 1: EVQLVESGGGLIQPGGSLRLSCAASGSISSRDTMGWYRQAPGKGREMVSVISSSGNTNYADSVLGRFTISRDNAKNTVYLQMNALRAEDTAVYKCYAHRTYGVDYWGQGTLVTVSSGGGSQVQLVESGGGLVQPGGSLRLSCAASGRTFSSYTMGWFRQAPGKGREFVSAISWSAGRTYYADSVKGRFTISRDNAKNTVYLQMNALRAEDTAVYYCAAEEAPDWAPIDCSGYGCLSLYDYWGQGTLVTVSDKTHTCPPCPAPEAAGAPSVFLFPPKPKDTLYITREPEVTCVVVDVSHEDPEVKFNWYVDGVEVHNAKTKPREEQYNSTYRVVSVLTVLHQDWLNGKEYKCKVSNKALPAPIEKTISKAKGQPREPQVCTLPPSRDELTKNQVSLSCAVKGFYPSDIAVEWESNGQPENNYKTTPPVLDSDGSFFLVSKLTVDKSRWQQGNVFSCSVMHEALHNHYTQKSLSLSPG chain 2: DKTHTCPPCPAPEAAGAPSVFLFPPKPKDTLYITREPEVTCVVVDVSHEDPEVKFNWYVDGVEVHNAKTKPREEQYNSTYRVVSVLTVLHQDWLNGKEYKCKVSNKALPAPIEKTISKAKGQPREPQVYTLPPCRDELTKNQVSLWCLVKGFYPSDIAVEWESNGQPENNYKTTPPVLDSDGSFFLYSKLTVDKSRWQQGNVFSCSVMHEALHNHYTQKSLSLSPG	16000	1700	22000	17000	15000	3000	1.34	7.2	
DGL620 (bispecific antibody) chain 1: EVQLLESGGGLVQPGGSLRLSCAASGRTFSKHAMGWFRQAPGKGLEFVSAIDWSGGSTYYADSVKGRFTISRDNSKNTVYLQMNSLRAEDTAVYYCAADSYTDYAQLWLPELESEYDYWGQGTLVTVSSCPPCPAPEAAGAPSVFLFPPKPKDTLYITREPEVTCVVVDVSHEDPEVKFNWYVDGVEVHNAKTKPREEQYNSTYRVVSVLTVLHQDWLNGKEYKCKVSNKALPAPIEKTISKAKGQPREPQVCTLPPSRDELTKNQVSLSCAVKGFYPSDIAVEWESNGQPENNYKTTPPVLDSDGSFFLVSKLTVDKSRWQQGNVFSCSVMHEALHNHYTQKSLSLSPG chain 2: QLQLLESGGGLVQAGGSLRLSCAASRSITFSHNVMGWYRQAPGKGRELVSSIGSGGSTNYVDSVKGRFTISRDNSKKTLYLQMNSLRAEDTAVYYCGVVVGVYRGSLGQGTLVTVSSCPPCPAPEAAGAPSVFLFPPKPKDTLYITREPEVTCVVVDVSHEDPEVKFNWYVDGVEVHNAKTKPREEQYNSTYRVVSVLTVLHQDWLNGKEYKCKVSNKALPAPIEKTISKAKGQPREPQVYTLPPCRDELTKNQVSLWCLVKGFYPSDIAVEWESNGQPENNYKTTPPVLDSDGSFFLYSKLTVDKSRWQQGNVFSCSVMHEALHNHYTQKSLSLSPG	16000	1300	22000	19000	15000	2400	1.87	10.1	~1
DGL336 (bispecific antibody, V domains shown) V domain 1: EVQLLESGGGLVQPGGSLRLSCAASGRTFSKHAMGWFRQAPGKGLEFVSAIDWSGGSTYYADSVKGRFTISRDNSKNTVYLQMNSLRAEDTAVYYCAADSYTDYAQLWLPELESEYDYWGQGTLVTVSS V domain 2: EVQLVESGGGLIQPGGSLRLSCAASGSISSRDTMGWYRQAPGKGREMVSVISSSGNTNYADSVLGRFTISRDNAKNTVYLQMNALRAEDTAVYKCYAHRTYGVDYWGQGTLVTVSS	13000	620	17000	9300	1500	1300	0.9	4.9	

From US20250179197A1 (DIAGONAL THERAPEUTICS, published 2025)
